{
  "source": "patent US20260166130A1",
  "about": "“PEPTIDE COMPOSITION HAVING ANGIOGENIC ACTIVITY, AND PHARMACEUTICAL COMPOSITION USING SAME AND COSMETIC COMPOSITION USING SAME” (LABTOMEDI CRO CO.,LTD., priority 2022, published 2026)",
  "tested_on": "HUVECs",
  "test": "Blood vessel (tube) formation assay on Matrigel",
  "format": "cell-based, human",
  "details": "4 hours, vs. control",
  "description": "HUVECs (20,000 cells/well) were seed on a layer of previously polymerized Matrigel and treated with or without the first peptide and the second peptide. The Matrigel culture was incubated at 37° C. After 4 hours, changes in cell morphology were captured using a phase-contrast microscope (×40). Each sample was assayed in duplicate, and independent experiments were repeated three times. *P<0.05, **P,0.01, ***P<0.001 (vs. control).\nHUVECs (20,000 cells/well) were seeded on a layer of previously polymerized Matrigel, treated with the visfatin-derived peptides, and then incubated in a 5% CO2 incubator at 37° C. for 4 hours. Then, changes in the cell morphology were observed and photographed using a phase-contrast microscope at 40× magnification. Each sample was assayed in duplicate, and independent experiments were repeated three times. Angiogenesis was analyzed with ImageJ software using an angiogenesis analyzer (Bethesda, MD, USA).",
  "data": [
    {"molecule": "visfatin (protein, UniProt P43490 1-491, looked up, 55 kDa cytokine secreted from adipocytes, used as positive control) Nicotinamide …: MNPAAEAEFNILLATDSYKVTHYKQYPPNTSKVYSYFECREKKTENSKLRKVKYEETVFYGLQYILNKYLKGKVVTKEKIQEAKDVYKEHFQDDVFNEKGWNYILEKYDGHLPIEIKAVPEGFVIPRGNVLFTVENTDPECYWLTNWIETILVQSWYPITVATNSREQKKILAKYLLETSGNLDGLEYKLHDFGYRGVSSQETAGIGASAHLVNFKGTDTVAGLALIKKYYGTKDPVPGYSVPAAEHSTITAWGKDHEKDAFEHIVTQFSSVPVSVVSDSYDIYNACEKIWGEDLRHLIVSRSTQAPLIIRPDSGNPLDTVLKVLEILGKKFPVTENSKGYKLLPPYLRVIQGDGVDINTLQEIVEGMKQKMWSIENIAFGSGGGLLQKLTRDLLNCSFKCSYVVTNGLGINVFKDPVADPNKRSKKGRLSLHRTPAGNFVTLEEGKGDLEEYGQDLLHTVFKNGKVTKSYSFDEIRKNAQLNIELEAAHH", "values": [
      {"measurement": "number of master junctions (tube formation)", "setting": "second peptide except at the 2.0 μM concentration", "value": "significantly increased"},
      {"measurement": "number of meshes (tube formation)", "setting": "positive controls", "value": "not significantly changed"}
    ]}
  ]
}
